Data taken from the supplement of paper PMC7125110.
± gives the standard error. Fewer inactive variants are shown than the library holds.

B1: glmS ribozyme (parent)
chain: AUAAAAGCGCCAGAACUACAGAAAUGUAGUUGACGAGGAGGAGGUUUAUCGAAUUUUCGGCGGAUGCCUCCAAA

Variants of: B1
Assay: self-cleavage kobs at 2500 uM GlcN6P; higher = faster cleavage; RNA array
Settings: with glucosamine-6-phosphate
Outline: (§1)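 Tiles of sequenced MiSeq chips were imaged over ~14 h at 37 °C. On them, barcoded ribozyme variants had been transcribed in situ by E. coli RNA polymerase and were tracked via a hybridised Cy3 probe while glucosamine-6-phosphate (40 μM to 10 mM) in HEPES/KCl/Mg(OAc)2 buffer flowed in. Per-tile medians, normalised to baseline and to non-cleaving reference variants, were fit to one- or two-exponential decays for kobs, and weighted Michaelis–Menten fits gave kcat and KM.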

Row | Variant | self-cleavage kobs at 2500 uM GlcN6P [s⁻¹]
1 | G13A C34A A39G G59A G62C | < 1e-05
2 | A14G A42G A52U | 9.16e-05 ± 3.3e-05
3 | A14G A48G C71U | 0.000156 ± 5.8e-05
4 | A14G G44U U56A | 0.000881 ± 0.00031
5 | G13C C34G U49C C71A | < 1e-05
6 | A14C U31G A64C | 6.13e-05 ± 2.2e-05
7 | A15C G37U A39G | < 1e-05
8 | G13A C16U G29U | 5.93e-05 ± 2e-05
9 | A14C G40U U47C A53G C61A C70U | < 1e-05
10 | A15G A39U G40A C61A | < 1e-05
11 | G13U A53G C68U | 0.000212 ± 3.7e-05
12 | A14C A15G C16U | 4.99e-05 ± 1.9e-05
13 | A12U U31G U56A | 0.00599 ± 0.0012
14 | G13C C16G U69G | 7.16e-05 ± 3.5e-05
15 | G13U U47A C50U | < 1e-05
16 | A15G G32C G37U C70A | 0.000633 ± 0.00028
17 | A15G C50G | 8.29e-05 ± 3.5e-05
18 | A14U G32A G38U C50G C71G | 0.000179 ± 3.5e-05
19 | A15G A52U C70U | 0.000255 ± 6.5e-05
20 | A14G A33U C70G | < 1e-05
21 | G13U A39G U47G C71A | 5.73e-05 ± 1.7e-05

Row | Variant | self-cleavage kobs at 2500 uM GlcN6P [s⁻¹]
22 | G13A A33U A53C | < 1e-05
23 | G13U G38C A53U | < 1e-05
24 | A15G C16U U31A A39C | 0.000142 ± 2.8e-05
25 | A14C G60U C68U | < 1e-05
26 | G13U U47G C67A | 7.8e-05 ± 1.6e-05
27 | G13U U47G C67U | 8.34e-05 ± 2.2e-05
28 | A14C U31C U54C | 0.0014 ± 0.00039
29 | G13A A14U U56A | 0.000412 ± 0.0001
30 | A14G U46C U54A C71A | 0.000844 ± 0.00027
31 | A14G U46C A48C C68U | 8.06e-05 ± 3.1e-05
32 | A12U U31G U69A | 0.000111 ± 4.9e-05
33 | A15G G32U C71G | 8.85e-05 ± 2.5e-05
34 | A15G G32A C71G | 0.000277 ± 0.0001
35 | A14U U47A C71G | 0.000172 ± 6.8e-05
36 | A14U U55G C58G | 5.25e-05 ± 1.2e-05
37 | A12U G44C A53U | 6.46e-05 ± 1.9e-05
38 | G13U C19A C70U | 0.000171 ± 2.8e-05
39 | A15C U31C U45A G59U U65A | < 1e-05
40 | G13U G29U U54G | 8.58e-05 ± 2.4e-05
41 | A14C A15G G62C C67A | < 1e-05
42 | G13A G43A U49C C58A | < 1e-05

Row | Variant | self-cleavage kobs at 2500 uM GlcN6P [s⁻¹]
43 | A14U U30A C71G | 5.1e-05 ± 1.2e-05
44 | G13C G37U C58U G60A | < 1e-05
45 | A14U A48U U54G G60C U69A C71U | 4.74e-05 ± 1.9e-05
46 | G13A A64C C71U | < 1e-05
47 | A14C U31C U65A C70A | 7.72e-05 ± 2.5e-05
48 | A14C A42G G43U C70A | < 1e-05
49 | A15C U45C C50G C68U | < 1e-05
50 | A14U U30G G38A U69G | 0.00012 ± 5.3e-05
51 | G13C A15U C61G | < 1e-05
52 | A14U C16G G38C G41C U47G | < 1e-05
53 | A14C A33C U49A G66C | < 1e-05
54 | G13U G51C U57A C71A | < 1e-05
55 | G13C U55A | 6.85e-05 ± 1.6e-05
56 | A15G G35C G37C U49C | < 1e-05
57 | G13C G38U U47A C70G | < 1e-05
58 | G13U A39U U56A | 0.000101 ± 2e-05
59 | A12U U54A G60C U65A | < 1e-05
60 | A14U C50U G63C | < 1e-05
61 | A12U G44U C67U | 0.0167 ± 0.0049
62 | G13A G40C G60A U65A | < 1e-05
63 | A15C U57A C67G | 5.01e-05 ± 2.4e-05

Row | Variant | self-cleavage kobs at 2500 uM GlcN6P [s⁻¹]
64 | A14U U47G C68U | 0.000197 ± 3.4e-05
65 | A14U A36U C71U | < 1e-05
66 | G13U A14C G32U C61G | < 1e-05
67 | A15G C34G A42U C67G | < 1e-05
68 | A14U C67A C71U | 0.000265 ± 5.2e-05
69 | A14U A33U A36C | < 1e-05
70 | A15C G40U A42C | < 1e-05
71 | G13U G38U U54G G62A | < 1e-05
72 | A14C G29C G44C U49G G59C C71U | < 1e-05
73 | G13A G44U A64U | < 1e-05
74 | A14U U56A G63A | < 1e-05
75 | A15C A39G U47G A53U | 0.000235 ± 8.5e-05
76 | G13A C34G G35A G41A U65A G66U | < 1e-05
77 | G13U A42C U69A | < 1e-05
78 | G13C A14G U46A | 5.24e-05 ± 1.3e-05
79 | A15C G66C | 0.000277 ± 0.00013
80 | A14U G32U C71A | 4.64e-05 ± 2e-05
81 | A12U G41U A48U | 7.03e-05 ± 3e-05
82 | G13U U55A C58A | 0.001 ± 0.00012
83 | A14C U30G C58G | 5.75e-05 ± 2.4e-05
84 | A12U U31A C50G C61U | 6.19e-05 ± 2.1e-05

Variants of: B1
Assay: self-cleavage kobs at 10000 uM GlcN6P; higher = faster cleavage; RNA array
Settings: with glucosamine-6-phosphate
Outline: as §1

Row | Variant | self-cleavage kobs at 10000 uM GlcN6P [s⁻¹]
85 | G13U U47G C67U | 4.31e-05 ± 2e-05
86 | G13A A14U U56A | 0.000631 ± 0.00023
87 | A15G G32A C71G | 0.000201 ± 3.3e-05
88 | A15C U31C U45A G59U U65A | < 1e-05
89 | A14U G32U C71A | 7.15e-05 ± 2.1e-05
